Consider one substance from paper PMC3575483.

This assay deals with Purified native (non-tagged) D. radiodurans DR1245 protein (D. radiodurans). In words: SEC; Sephacryl S-300 16/60 HR gel filtration column of purified native DR1245.

In turn, “Purified native (non-tagged) D. radiodurans DR1245 protein (natural protein)” registered a stoichiometry N of 2.
